Publication PMC2692654
Read-outs that look alike come from different tables or passages of the source.

T1: M.HhaI methyltransferase (UniProt P05102 1-327)
T1 sequence: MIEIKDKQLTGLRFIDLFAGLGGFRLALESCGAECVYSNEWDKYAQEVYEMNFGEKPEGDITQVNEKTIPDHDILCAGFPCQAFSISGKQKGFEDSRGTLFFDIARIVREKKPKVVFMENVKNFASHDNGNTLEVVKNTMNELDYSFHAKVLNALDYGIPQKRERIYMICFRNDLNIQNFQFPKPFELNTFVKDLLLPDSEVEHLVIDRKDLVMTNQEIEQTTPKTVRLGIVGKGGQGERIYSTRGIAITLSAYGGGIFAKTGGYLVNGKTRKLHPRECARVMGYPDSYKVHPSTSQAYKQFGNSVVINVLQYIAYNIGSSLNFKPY


Experiments:
[1] = target: T1, M.HhaI methyltransferase; assay: electrochemical E-DNA sensor
[2] = target: T1, M.HhaI methyltransferase; assay: electrochemical E-DNA sensor; remark: listed apart in the source

| Binder | binding result [1] | binding result [2] |
| --- | --- | --- |
| CGGGCTATATAAGGGGCGTTTTCTTATATAG (structured_DNA, 5' HS-(CH2)6 thiol; internal T10 C5-linked methylene blue) [TATA probe] | no binding | – |
| AAGACGAGCGCATGTTTATGCGCTC (structured_DNA, 5' HS-(CH2)6 thiol; internal T16 C5-linked methylene blue) [M.HhaI probe] | – | binds |
